# T1: IL-33 mutant protein V49A (human, UniProt O95760 112-270)
# T1 construct: Prokaryotic expression
# T1 chain: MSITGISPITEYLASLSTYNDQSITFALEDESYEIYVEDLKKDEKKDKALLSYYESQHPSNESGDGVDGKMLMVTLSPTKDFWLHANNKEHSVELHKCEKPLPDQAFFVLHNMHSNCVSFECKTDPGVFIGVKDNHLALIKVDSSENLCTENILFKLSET
# T2: Human IL-33-his (human, UniProt O95760 112-270, biotinylated with EZ-Link NHS-Biotin where used as IL-33-his-biotin)
# T2 construct: Used plain (SPR, cell assays) and biotinylated (ELISA); also called IL-33-his-biotin
# T2 sequence: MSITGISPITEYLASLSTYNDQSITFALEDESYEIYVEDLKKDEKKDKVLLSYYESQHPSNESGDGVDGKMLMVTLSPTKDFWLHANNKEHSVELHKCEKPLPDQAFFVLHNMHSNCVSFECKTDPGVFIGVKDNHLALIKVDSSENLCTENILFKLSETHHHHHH
# T3: Mouse IL-33 protein (mouse, UniProt Q8BVZ5 109-266)
# T3 construct: Bought protein
# T3 sequence (looked up): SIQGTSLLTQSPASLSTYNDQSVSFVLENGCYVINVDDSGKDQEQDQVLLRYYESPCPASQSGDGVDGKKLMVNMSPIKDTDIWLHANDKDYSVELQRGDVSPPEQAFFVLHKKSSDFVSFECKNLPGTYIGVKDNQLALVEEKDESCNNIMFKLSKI
# T4: IL-33 mutant protein H58A (human, UniProt O95760 112-270)
# T4 construct: Prokaryotic expression
# T4 chain: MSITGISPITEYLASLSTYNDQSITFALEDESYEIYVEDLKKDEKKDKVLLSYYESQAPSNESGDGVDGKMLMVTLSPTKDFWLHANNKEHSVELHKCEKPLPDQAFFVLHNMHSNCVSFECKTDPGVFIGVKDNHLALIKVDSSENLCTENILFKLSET
# T5: Pep13 (human, N-terminal biotin)
# T5 construct: Synthetic 20-mer of human IL-33
# T5 peptide: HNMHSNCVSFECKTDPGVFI
# Experiments:
# [1] = target: T1, IL-33 mutant protein V49A; test: ELISA by the method of Example 9 with the IL-33 mutant protein on the plate, 874F7-Hu1 in serial dilution, HRP anti-human IgG Fc, absorbance 450 nm
# Human IL-33-his = target: T2, Human IL-33-his; test: SPR Biacore 8K as Example 14, antibody captured, antigen as analyte
# Method: (§1) A chip with covalently coupled Protein A/G (purchased from GE Healthcare, catalog number BR-1005-30) was used to capture each antibody to be tested, and the relevant operating parameters were as follows: The antibody concentration was […], the contact time was 75 s, the flow rate was […], and the regeneration contact time was 30 s. The IL-33-his antigen was diluted with HBS-EP pH7.4 buffer solution (purchased from GE Healthcare, catalog number BR-1006-69). The maximum concentration was 50 nM, and diluted to 0.39 nM by two-fold dilution. Duplicate wells and 0 concentration point well were set, and 6M guanidine hydrochloride solution was used as the regeneration buffer. The sample was injected on Biacore 8K according to the following parameters, the binding time was 180 s, the dissociation time was 900 s, the flow rate was 30 μL/min, and the regeneration contact time was 30 s. After running, Biacore 8K Evaluation Software was used to analyze the data according to the “1:1 binding kinetics model”, and the binding kinetics parameters of each antibody to IL-33 were obtained.
# (§2) The experimental methods were referred to Example 14, in which the antigens cynomolgus IL-33 protein (purchased from Sino catalog number 90912-CNAE) and mouse IL-33 protein (purchased from R&D, 3626-ML-010/CF) were used, and human IL-33 protein was used as the control. Both 864F3-Hu4 and 874F7-Hu1 cross-react with cynomolgus IL-33 protein, and are consistent with the characteristics of each antibody binding to human IL-33 protein.
# Mouse IL-33 protein = target: T3, Mouse IL-33 protein; test: as above
# Method: as §1, §2
# [2] = target: T4, IL-33 mutant protein H58A; test: ELISA as Example 9; row H58A
# Method: SA protein was diluted to 2 μg/mL to coat ELISA plate at 100 μL/well overnight at 4° C. The plate was washed with PBST (PBS containing 0.05% Tween20) for 3 times, and blocked with 2% BSA prepared in PBS at 200 μL/well, at room temperature for 2 h. After the plate was washed twice with PBST, IL-33-his-biotin protein was diluted to 1 μg/mL with 1% BSA prepared in PBST, and was added to ELISA plate at 100 μL/well. The plate was incubated at room temperature for 1 h, and each monoclonal antibody was diluted with 1% BSA prepared in PBST in a 3-fold gradient. The highest concentration of antibody was 10 μg/mL, and the antibody was diluted for 12 gradients. Each diluted monoclonal antibody was added to ELISA wells with 100 μL/well, and the plate was incubated at room temperature for 1 h. Each sample was added to duplicate wells in parallel. The plate was washed with PBST for 3 times, and HRP-anti human IgG Fc secondary antibody prepared with PBST was diluted at an appropriate ratio, and was added to ELISA wells at 100 μL/well. […] Each reaction solution was shaken uniformly and OD450 nm was read on a microplate reader. The data was analyzed and EC₅₀ was calculated.
# Subsequently, according to the experimental method of Example 9, the affinity of the above mutant proteins to 874F7-Hu1 was determined, and IL-33 proteins (WT-1, WT-2, WT-3, and WT-4) without any mutation were set as controls.
# Pep13 = target: T5, Pep13; test: ELISA, biotinylated peptide on streptavidin plate, antibody 10 µg/mL, well 2
# Method: To determine the binding activity of antibody to each polypeptide fragment, the ELISA plate was pre-coated by biotin-avidin (SA) which was diluted in coating solution (50 mM carbonate coating buffer, pH 9.6) to 2 μg/ml at 4° C. overnight. The plate was washed with PBST for 3 times, and then blocked with 2% BSA prepared in PBS at room temperature for 2 h with 200 μL/well. The plate was washed once with PBST, and 864F3 and 874F7 with final concentrations of 10 μg/mL were added at 100 μL/well, respectively, and the plate was incubated at room temperature for 1 h. The plate was washed with PBST for 3 times, and the goat anti-mouse IgG labeled by HRP was added and placed at 37° C. for 30 min. After washing the plate with PBST for 3 times, the plate was patted on the absorbent paper to remove residual droplets as far as possible. 100 μl TMB developing solution was added to each well, and the plate was placed at room temperature (20±5° C.) for 5 minutes away from light; 50 μl 2M H₂SO₄ terminating solution was added to each well to terminate the substrate reaction. OD values were read at 450 nm on the microplate reader to analyze the binding ability of the antibody to each polypeptide fragment. The experimental results are shown in […]
EC50 (read off the curve) [1],Kd (Human IL-33-his),koff (Human IL-33-his),kon (Human IL-33-his),Kd (Mouse IL-33 protein),koff (Mouse IL-33 protein),kon (Mouse IL-33 protein),EC50 [2],OD450 (Pep13),Binder
~3 nM,1.13 nM,0.000204 s⁻¹,180000 M⁻¹ s⁻¹,33.2 nM,0.00212 s⁻¹,64000 M⁻¹ s⁻¹,0.43 nM,,"874F7-Hu1 (antibody, human IgG4 S228P, kappa, also called 874F7-Hul; humanized antibody 874F7-Hu1) heavy: not shown light: DIQMTQSPSSVSASVGDRVTITCLASQTIGAWLAWYQQKPGKSPKLLIYAATRLADGVPSRFSGSGSGTDFTLTISSLQPEDFATYYCQQLDSSPYTFGQGTKVEIKRTVAAPSVFIFPPSDEQLKSGTASVVCLLNNFYPREAKVQWKVDNALQSGNSQESVTEQDSKDSTYSLSSTLTLSKADYEKHKVYACEVTHQGLSSPVTKSFNRGEC"
,,,,,,,,0.053 OD450,"874F7 (antibody, V domains shown, Murine hybridoma antibody purified on Protein G; also called murine antibody 874F7) VH: QVQLKESGPGLVAPSHSLSITCNVSGFSLSKYGVHWIRQIPGRGLDWLGVLRAGGSTGYNSALMSRLSISKDSSKSQVFLKMNDLRTDDTAVYFCVRDHYYYSSYGGFVYWGQGTLVTVSA VL: DIQMTQSPASQSASLGESVTITCLASQTIGAWLAWYRQQPGKSPQLLIYAATRLADGVPSRFSGSGSGTEFSFKINNLQAEDFVSYYCQQLDSSPYTFGGGTRLEM"

# — patent publication US20230399394A1 (SUNSHINE GUOJIAN PHARMACEUTICAL SHANGHAI, published 2023)
